Data published in patent US20220112288A1.
One block for each substance: values may come before it.

Tests used:
[1] = target: human CD4 on cells (SKW3 cells; human PBMCs) (human) (UniProt P01730); assay: SKW3 FACS binning, OKT4-A488 on SKW3 cells without competing supernatant (background 2163)
[2] = target: human CD4 on cells (SKW3 cells; human PBMCs) (human) (UniProt P01730); assay: SKW3 FACS binning, RPA-T4-PE-Dazzle 594 on SKW3 cells without competing supernatant (background 783)
[3] = target: human CD4 on cells (SKW3 cells; human PBMCs) (human) (UniProt P01730); assay: SKW3 FACS binning, OKT4a on SKW3 cells, anti-hu A647 secondary, without competing supernatant (background 5000)

Max Binding [1]: 8200
Substance: Mouse anti-human CD4 (OKT4), Alexa Fluor 488 conjugated (antibody)

Max Binding [2]: 15000
Substance: Mouse anti-human CD4 (RPA-T4), PE-Dazzle 594 conjugated (antibody)

Max Binding [3]: 35000
Substance: Human anti-human CD4 (OKT4a) (antibody)
